Experiments:
KB = test: cell based in vitro cytotoxicity/anti-proliferation assay (summary); parameters: species or system Human; conditions: Cervical
Protocol: (§1) The percentage cytotoxicity was calculated using the statistical tool.

[1] = test system: PBMC (Peripheral blood mononuclear cells); test: as above; conditions: normal cells
Protocol: as §1

[2] = test system: EA.hy926 (Human endothelial cells); test: Cell migration by scratch assay in endothelial cells; format: cell-based
Protocol: EA.hy296 cells were counted using hemocytometer and plated in 6-well plates at the density of 0.5×10^6 cells/well. The cells were incubated overnight under growth conditions as described above so as to allow cell recovery and exponential growth. Following overnight incubation, a small linear scratch (representative wound) was created in the confluent monolayer (middle of the well) by gently scraping with sterile 200 μl micropipette tip. Photomicrographs of the scratch were taken at 0 h (Initial time point). Cells were rinsed with serum free DMEM and grouped for treatment in two different serum conditions:
• Baseline control: Cells+DMEM • Positive/Validation control: Baseline control+Positive Control. Test: Baseline control+Test Item
• Baseline control: Cells+DMEM+1% FBS • Positive/Validation control: Baseline control+Positive Control. • Test: Baseline control+Test item
Photomicrographs of the scratch were taken at 24 h-72 h time points. The photomicrographs obtained in the above step were analyzed for quantitative assessment of area of wound closure using ImageJ tool software. Percentage migration with respect to untreated cells at different time points was calculated.

[3] = test system: PBMCs (Peripheral blood mononuclear cells); test: MTT cytotoxicity assay; conditions: 48h
Protocol: All the cancer cell lines were procured from National Centre for Cell Science, Pune (India). Cell lines were maintained under conditions as mentioned in Table 23. The cell lines were sub-cultured by trypsinization followed by splitting the cell suspension into fresh flasks and supplementing with fresh culture medium.
All the cell lines were grown in specified media at 37° C. with 95% Humidity and 5% CO2.
The cells were trypsinized, counted by Trypan blue method in Neuebauer's Chamber and plated in wells of flat bottom 96-well plate at the density corresponding to 10×10^3 cells/well/200 μL medium.
Following overnight incubation, the media in the plate was replenished with 180 μL/well and then the cells were treated with 20 μL of each test item at concentrations ranging from 2.5 μg/mL-80 μg/mL in triplicates, so that the total volume in each well is 200 μL.
The untreated cells served as negative control. The cells were incubated with the test items or positive control for a time period of 48h. Following incubation, the cell cytotoxicity was estimated using MTT assay. Absorbance was measured at 540 nm. The percentage cytotoxicity corresponding to each treatment was calculated using the formula:
% Cytotoxicity=(1−X/R)*100
Where X=absorbance of wells corresponding to treated cells R=absorbance of untreated cells (cells maintained in growth medium only)
IC50 value was calculated using Graph-Pad Prism version 4.01 software.

Glioblastoma (U251MG) = test: cytotoxicity in Brain Tumor Cell lines by MTT assay; conditions: 72 h
Meningioma (IOMM-Lee) = test: as above; conditions: 72 h

B1: SEQ ID NO. 2: recombinant lectin; variant of the S. rolfsii lectin amino acid sequence (reported as Rec-2 in WO 2010/095143) (protein)
chain: TYKITVRVYQTNPDAFFHPVEKTVWKYANGGTWTITDDQHVLTMGGSGTSGTLRFHADNGESFTATFGVHNYKRWCDIVTNLAADETGMVINQQYYSQKNREEARERQLSNYQVKNAKGRNFQIVYTEAEGNDLHANLIIG
modifications: In vitro synthesis
- % Cytotoxicity (KB): 64.0%
- % Cytotoxicity ([1]; listed as SEQ ID NO 2): Nil
- % Cytotoxicity ([1]; listed as SEQ ID No 2): did not show cytotoxic effect
- inhibition of endothelial cells migration as compared to control (DMEM) ([2]; 20 μg/mL to 100 μg/mL, after 72 hrs): 71.5% to 82.4%
- Inhibition of migration with respect to untreated ([2]; 20 μg/mL, 24 h, 1% FBS): 0.8%
- Inhibition of migration with respect to untreated ([2]; 20 μg/mL, 24 h, SFM): 74%
- Inhibition of migration with respect to untreated ([2]; 20 μg/mL, 48 h, 1% FBS): 5.4%
- Inhibition of migration with respect to untreated ([2]; 20 μg/mL, 48 h, SFM): 81.1%
- Inhibition of migration with respect to untreated ([2]; 20 μg/mL, 72 h, SFM): 82.4%
- Inhibition of migration with respect to untreated ([2]; 40 μg/mL, 24 h, 1% FBS): 28.5%
- Inhibition of migration with respect to untreated ([2]; 40 μg/mL, 24 h, SFM): 80.5%
- Inhibition of migration with respect to untreated ([2]; 40 μg/mL, 48 h, 1% FBS): 35.3%
- Inhibition of migration with respect to untreated ([2]; 40 μg/mL, 48 h, SFM): 82.3%
- Inhibition of migration with respect to untreated ([2]; 40 μg/mL, 72 h, SFM): 82.2%
- Inhibition of migration with respect to untreated ([2]; 50 μg/mL, 24 h, 1% FBS): 30.0%
- Inhibition of migration with respect to untreated ([2]; 50 μg/mL, 24 h, SFM): 79.9%
- Inhibition of migration with respect to untreated ([2]; 50 μg/mL, 48 h, 1% FBS): 42.9%
- Inhibition of migration with respect to untreated ([2]; 50 μg/mL, 48 h, SFM): 81%
- Inhibition of migration with respect to untreated ([2]; 50 μg/mL, 72 h, SFM): 79.5%
- Inhibition of migration with respect to untreated ([2]; 60 μg/mL, 24 h, 1% FBS): 50.1%
- Inhibition of migration with respect to untreated ([2]; 60 μg/mL, 24 h, SFM): 82.0%
- Inhibition of migration with respect to untreated ([2]; 60 μg/mL, 48 h, 1% FBS): 63.5%
- Inhibition of migration with respect to untreated ([2]; 60 μg/mL, 48 h, SFM): 77.3%
- Inhibition of migration with respect to untreated ([2]; 60 μg/mL, 72 h, SFM): 76.0%
- Inhibition of migration with respect to untreated ([2]; 80 μg/mL, 24 h, 1% FBS): 65.6%
- Inhibition of migration with respect to untreated ([2]; 80 μg/mL, 24 h, SFM): 80.5%
- Inhibition of migration with respect to untreated ([2]; 80 μg/mL, 48 h, 1% FBS): 77.8%
- Inhibition of migration with respect to untreated ([2]; 80 μg/mL, 48 h, SFM): 78.2%
- Inhibition of migration with respect to untreated ([2]; 80 μg/mL, 72 h, SFM): 74.5%
- Inhibition of migration with respect to untreated ([2]; 100 μg/mL, 24 h, 1% FBS): 73.8%
- Inhibition of migration with respect to untreated ([2]; 100 μg/mL, 24 h, SFM): 55.7%
- Inhibition of migration with respect to untreated ([2]; 100 μg/mL, 48 h, 1% FBS): 73.1%
- Inhibition of migration with respect to untreated ([2]; 100 μg/mL, 48 h, SFM): 73.2%
- Inhibition of migration with respect to untreated ([2]; 100 μg/mL, 72 h, SFM): 71.5%
- IC50 [3]: >80 µg/mL
- % Cytotoxicity (HT-29): 54.9%
- % Cytotoxicity (PA-1): 72.0%
- % Cytotoxicity (MCF-7): 28.0%
- % Cytotoxicity (PANC-1): 60.8%
- % Cytotoxicity (T-24): 93.1%
- IC50 Value (Glioblastoma (U251MG)): 11.05 µg/mL
- IC50 Value (Meningioma (IOMM-Lee)): 18.37 µg/mL

Source: US20230348564A1, “ANTI-CANCER PROTEINS” (UNICHEM LABORATORIES LTD, priority 2020, published 2023)
